Assay results: publication PMC5127644, “SPRTN is a mammalian DNA-binding metalloprotease that resolves DNA-protein crosslinks”

T1: SPRTN full length (Homo sapiens, UniProt Q9H040 1-489)
T1 sequence: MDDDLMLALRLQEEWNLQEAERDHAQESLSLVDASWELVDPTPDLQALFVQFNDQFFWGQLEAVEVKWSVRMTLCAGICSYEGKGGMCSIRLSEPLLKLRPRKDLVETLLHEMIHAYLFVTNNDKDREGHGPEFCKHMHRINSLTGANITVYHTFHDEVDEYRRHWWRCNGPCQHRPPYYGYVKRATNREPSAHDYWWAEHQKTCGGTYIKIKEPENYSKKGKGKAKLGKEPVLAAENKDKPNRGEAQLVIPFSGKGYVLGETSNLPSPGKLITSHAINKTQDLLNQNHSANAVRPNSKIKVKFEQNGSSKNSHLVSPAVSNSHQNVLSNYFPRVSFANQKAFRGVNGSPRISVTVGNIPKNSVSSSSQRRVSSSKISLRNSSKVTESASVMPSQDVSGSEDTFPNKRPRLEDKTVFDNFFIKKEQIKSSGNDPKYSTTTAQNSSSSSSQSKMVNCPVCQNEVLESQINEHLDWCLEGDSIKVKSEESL

T2: SPRTN-∆C (a.a. 1-216) (Homo sapiens, UniProt Q9H040 1-216)
T2 sequence: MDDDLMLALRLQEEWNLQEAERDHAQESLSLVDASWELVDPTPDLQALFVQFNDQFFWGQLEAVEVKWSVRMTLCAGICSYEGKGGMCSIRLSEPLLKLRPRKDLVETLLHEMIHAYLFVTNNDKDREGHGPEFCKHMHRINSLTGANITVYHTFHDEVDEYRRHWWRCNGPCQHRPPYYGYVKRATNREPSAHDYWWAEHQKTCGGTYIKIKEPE

B1: 6-FAM-ssODN 39-mer (ssDNA)
DNA: GCGCGCCCATTGATACTAAATTCAAGGATGACTTATTTC
B2: 6-FAM-dsODN 39-mer (dsDNA)
DNA 1: B1 DNA
DNA 2: GAAATAAGTCATCCTTGAATTTAGTATCAATGGGCGCGC

Tests used:
[1] = molecular target: T1, SPRTN full length; assay: EMSA; 5 uM ZnSO4; EMSA: 10 mM Tris-HCl pH 7.5, 0.2 mM DTT, 5 uM ZnSO4, 0.25 uM DNA, 30 uL, 30 min at 20 C, 1.5% agarose gel; details: protein: recombinant, tags: Z-basic-His tag, TEV-cleaved (E. coli, pNIC-ZB)
[2] = molecular target: T2, SPRTN-∆C (a.a. 1-216); assay: as above; details: protein: recombinant, tags: His tag (pNIC28-Bsa4), TEV-cleaved (E. coli)
[3] = label: 6-FAM (5' as drawn), single strand
[4] = label: 6-FAM on strand 1, blunt

Binder | binding result [1, 3] | binding result [2, 3] | binding result [1, 4] | binding result [2, 4]
B1 | binds | no binding | – | –
B2 | – | – | binds | no binding
